Data from patent publication US12465660B2, “Compositions and methods for cancer imaging and radiotherapy” (VECT-HORUS, priority 2017, dated 2025).
Positions of bridges follow the written chain, without caps; N, C: chain ends. Non-standard residues stand in square brackets, D forms with d. Primed or numbered codes have the meaning given here. No end group written: not given here. *: point of attachment. DOTA = O=C(O)CN1CCN(CC(=O)O)CCN(CC(=O)*)CCN(CC(=O)O)CC1; NODAGA′ = not defined here; PEG12′ = not defined here; βAla = NCCC(=O)O

Assays:
[1] = target: T1, Recombinant human LDLR (His-tagged) (Homo sapiens, UniProt P01130); experiment: SPR affinity of MG04/VH-DO35, CH44, FG770, CH40 and FG769 for LDLR (Biacore T200); assay type: binding; conditions: 25° C.
T1 construct: purchased Sino Biological (Beijing, China)
Protocol: (§1) Recombinant human LDLR (His-tagged) was purchased from Sino Biological (Beijing, China). Interaction of conjugates with LDLR was tested at 25° C. using a Biacore T200 (GE Healthcare) and 50 mM HEPES-NaOH pH7.4, 150 mM NaCl, 0.005% Tween-20, 50 μM EDTA as running buffer. hLDLR was immobilized on a NiHC sensor chip (Xantec, Dusseldorf, Germany) at a density of 35-60 fmol/mm^2. Binding of conjugates to LDLR-coated flow cells was corrected for non-specific binding to uncoated flow cells. The single-cycle kinetic method was used to measure the affinity of ligands with LDLR. Ligands were diluted in running buffer and injected sequentially 2 minutes at 30 μl/min using increasing concentrations. Blank run injections of running buffer were performed in the same conditions before ligand injection. Double-subtracted sensorgrams were globally fitted with the 1:1 Langmuir binding model from Biacore T200 Evaluation version 2.0.

[2] = target: T1, Recombinant human LDLR (His-tagged); experiment: SPR affinity of conjugates A, B, C and D for LDLR (Biacore T200); assay type: binding; conditions: 25° C.
Protocol: as §1

CHO-hLDLR-GFP cells = experiment: Binding/endocytosis of fluorescent conjugates by LDLR expressing cells (confocal microscopy); assay type: cell-based, Chinese Hamster; conditions: live cells, 1 hour at 37° C.
Text: In these experiments, with regards to FIG. 2, the LDLR-GFP signal is visualized in column 2, the conjugate signal is either directly visualized in column 4 using the A680 fluorescence or in column 3 using an anti-hFc-A594 conjugated secondary antibody. Cell nuclei were stained in blue with Hoechst and its signal can be visualized in column 1. The co-labelling of LDLR-GFP and conjugates can be visualized as a highlight signal in column 5 on the merge image.

T1 sequence (P01130 22-860): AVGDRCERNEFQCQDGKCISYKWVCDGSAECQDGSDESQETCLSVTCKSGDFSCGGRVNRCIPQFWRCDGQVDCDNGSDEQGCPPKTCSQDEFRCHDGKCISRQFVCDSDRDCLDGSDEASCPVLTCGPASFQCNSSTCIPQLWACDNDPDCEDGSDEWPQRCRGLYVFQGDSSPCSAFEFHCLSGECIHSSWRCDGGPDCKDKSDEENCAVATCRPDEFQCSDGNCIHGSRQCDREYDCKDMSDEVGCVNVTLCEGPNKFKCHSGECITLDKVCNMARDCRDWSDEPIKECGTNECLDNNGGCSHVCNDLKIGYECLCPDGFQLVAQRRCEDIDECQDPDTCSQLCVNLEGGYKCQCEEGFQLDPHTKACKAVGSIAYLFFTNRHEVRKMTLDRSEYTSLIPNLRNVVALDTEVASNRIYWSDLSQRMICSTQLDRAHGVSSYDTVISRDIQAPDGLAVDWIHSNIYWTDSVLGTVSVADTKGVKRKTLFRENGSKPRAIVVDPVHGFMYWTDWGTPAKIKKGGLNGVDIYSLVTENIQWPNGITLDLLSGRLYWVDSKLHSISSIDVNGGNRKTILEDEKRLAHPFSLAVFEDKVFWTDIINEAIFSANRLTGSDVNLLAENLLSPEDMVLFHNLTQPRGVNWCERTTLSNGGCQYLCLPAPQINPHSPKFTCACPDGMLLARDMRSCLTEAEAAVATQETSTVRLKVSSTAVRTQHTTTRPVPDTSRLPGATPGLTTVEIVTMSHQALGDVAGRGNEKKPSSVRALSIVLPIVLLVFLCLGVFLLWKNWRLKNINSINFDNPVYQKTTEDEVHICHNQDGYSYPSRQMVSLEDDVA

Substance: DOTA-βAla-PEG12-SEQ ID NO: 13-NH2 ({DOTA-βAla-PEG12′}-[dC]RPLGRMC-NH2; disulfide 1-8) [FG769, scrambled counterpart of FG770]
- KD [1]: No Binding

Substance: Fc-Peptide D-A680 (CRMLGRPC; cysteine pairing not given here; also: fused to a dimerising Fc or GST) [Conjugate D, control]
- KD [2]: No Binding
- binding to and endocytosis by CHO-hLDLR-GFP cells (CHO-hLDLR-GFP cells): are not

Substance: NODAGA-βAla-PEG12-SEQ ID NO: 13-NH2 ({NODAGA′-βAla-PEG12′}-[dC]RPLGRMC-NH2; disulfide 1-8) [CH40, scrambled counterpart of CH44]
- KD [1]: No Binding
